Laboratory results reported in paper PMC1802081 (BMC Structural Biology, 2007).
Numbering of substitutions follows the chain as printed.

T1: activin A (Sf9 cells) (UniProt P08476 311-426, biotin (biotinylated for the biosensor; site not stated))
T1 construct: activin A (dimer of inhibin beta A chains), mature ligand; also called Act-A; source: Sf9 cells [59]
T1 sequence (looked up): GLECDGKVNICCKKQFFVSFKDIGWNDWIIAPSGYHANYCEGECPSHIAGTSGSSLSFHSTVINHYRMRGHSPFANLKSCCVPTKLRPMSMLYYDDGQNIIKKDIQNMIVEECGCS

B1: BMP-7 (CHO cells, R&D Systems) (ligand, UniProt P18075 293-431, looked up)
chain: STGSKQRSQNRSKTPKNQEALRMANVAENSSSDQRQACKKHELYVSFRDLGWQDWIIAPEGYAAYYCEGECAFPLNSYMNATNHAIVQTLVHFINPETVPKPCCAPTQLNAISVLYFDDSSNVILKKYRNMVVRACGCH
modifications: biotin (biotinylated for the biosensor; site not stated)
notes: bone morphogenetic protein 7 (BMP-7), mature ligand; source: bought: R&D Systems (CHO cells)
B2: BMPR-II receptor ectodomain (receptor, UniProt Q13873 27-150, looked up)
chain: SQNQERLCAFKDPYQQDLGIGESRISHENGTILCSKGSTCYGLWEKSKGDINLVKQGCWSHIGDPQECHYEECVVTTTPPSIQNGTYRFCCCSTDLCNVNFTENFPPPDTTPLSPPHSFNRDET
notes: BMP type II receptor (BMPR-II), extracellular domain; also called BMPR-IIECD; source: expressed and purified as described earlier [28]
B3: ActR-IIB receptor ectodomain (ActR-IIBECD) (receptor, UniProt P27040 19-137, looked up)
chain: SGRGEAETRECIYYNANWELERTNQSGLERCEGEQDKRLHCYASWRNSSGTIELVKKGCWLDDFNCYDRQECVATEENPQVYFCCCEGNFCNERFTHLPEPGGPEVTYEPPPTAPTLLT
notes: mouse is recalled from the PDB entry 2H62 and should be checked there; also called activin type IIB receptor ectodomain; source: E. coli OrigamiB (DE3), purified (Ni2+-IMAC, thrombin cleavage, anion exchange, reversed phase HPLC)
B4: ActR-IIBECD K56A (receptor, UniProt P27040 19-137, looked up)
chain: B3 chain with K56A
notes: source: E. coli OrigamiB (DE3), purified (Ni2+-IMAC, thrombin cleavage, anion exchange, RP-HPLC)
B5: ActR-IIBECD D63A (receptor, UniProt P27040 19-137, looked up)
chain: B3 chain with D63A
notes: as for B4
B6: ActR-IIBECD R46A (receptor, UniProt P27040 19-137, looked up)
chain: B3 chain with R46A
notes: as for B4
B7: ActR-IIBECD L61A (receptor, UniProt P27040 19-137, looked up)
chain: B3 chain with L61A
notes: also called ActR-IIBL61A; source: E. coli OrigamiB (DE3), purified (Ni2+-IMAC, thrombin cleavage, anion exchange, RP-HPLC)
B8: ActR-IIBECD Y42A (receptor, UniProt P27040 19-137, looked up)
chain: B3 chain with Y42A
notes: as for B4
B9: ActR-IIBECD L61P (receptor, UniProt P27040 19-137, looked up)
chain: B3 chain with L61P
notes: also called ActR-IIBL61P; source: E. coli OrigamiB (DE3), purified (Ni2+-IMAC, thrombin cleavage, anion exchange, RP-HPLC)
B10: ActR-IIBECD E34A (receptor, UniProt P27040 19-137, looked up)
chain: B3 chain with E34A
notes: as for B4
B11: ActR-IIBECD K37A (receptor, UniProt P27040 19-137, looked up)
chain: B3 chain with K37A
notes: as for B4
B12: ActR-IIBECD Q80A (receptor, UniProt P27040 19-137, looked up)
chain: B3 chain with Q80A
notes: as for B4

How the values were obtained:
Details in all cases: both partners purified
[1] = molecular target: T2, ActR-II receptor ectodomain (UniProt P27037 20-135); experiment: SPR; BIACORE 2000; biotinylated ligand on a streptavidin-modified CM5 chip (about 200 RU); receptor ectodomain as analyte at 1, 2, 3, 5, 10, 20 and 50 uM; HBS500 (10 mM HEPES pH 7.4, 500 mM NaCl, 3.4 mM EDTA, 0.005% P20); apparent KD from the dose dependence of equilibrium binding
T2 construct: activin receptor type II (ActR-II), extracellular domain; also called ActR-IIECD; source: expressed and purified as described earlier [28]

[2] = molecular target: B1; experiment: as above
[3] = molecular target: T3, wildtype BMP-2 (bone morphogenetic protein 2), E. coli derived (UniProt P12643 283-396); experiment: SEC; ternary complex of wildtype BMP-2 as isolated from gelfiltration (HBS700 buffer); its composition by reversed phase HPLC, peak areas divided by the extinction coefficients
T3 construct: dimeric ligand; also called wtBMP-2; BMP-2 dimer

[4] = molecular target: T4, binary complex BMP-2:BMPR-IAECD (purified) (UniProt P12643 283-396; P36894 24-152); experiment: ITC; VP-ITC, 298 K (25 C), HBS500 buffer (10 mM HEPES, 500 mM NaCl, pH 7.4); 150 uM ActR-IIBECD in the syringe, 7.5 uM binary complex BMP-2:BMPR-IAECD in the cell; one-site-binding model
T4 construct: as the chain of Dm1; as the chain of Dm2; Complex formed beforehand and placed in the calorimeter cell at 7.5 uM; also called BMP-2:BMPR-IAECD complex; binary complex of BMP-2 and BMPR-IAECD; copies: 2 + 2

[5] = molecular target: T3, wildtype BMP-2 (bone morphogenetic …); experiment: SEC; ternary complex of wildtype BMP-2 as isolated from gelfiltration (HBS700 buffer); its composition by analytical SDS-PAGE, band intensities compared with standard mixtures of defined molar ratios
[6] = molecular target: T5, binary complex of BMP-2 bound to immobilized BMPR-IAECD (formed on the biosensor) (UniProt P12643 283-396; P36894 24-152); experiment: SPR; BMPR-IAECD immobilised; perfusion with 200 nM BMP-2 for 300 s to form the binary complex, then ActR-IIBECD as analyte at 1 to 50 uM for 120 s; apparent KD from the dose dependence of equilibrium binding, Scatchard analysis
T5 construct: as the chain of Dm4; as the chain of Dm2; also called BMP-2 in complex with immobilized BMPR-IAECD; binary BMP-2:BMPR-IAECD complex; source: formed on the biosensor by perfusion of immobilized BMPR-IAECD with 200nM BMP-2; copies: 2 +

[7] = molecular target: T6, glycosylated BMP-2 expressed in CHO cells (UniProt P12643 283-396, glycosylated; biotin (biotinylated for the biosensor; site not stated)); experiment: SPR; BIACORE 2000; biotinylated ligand on a streptavidin-modified CM5 chip (about 200 RU); receptor ectodomain as analyte at 1, 2, 3, 5, 10, 20 and 50 uM; HBS500 (10 mM HEPES pH 7.4, 500 mM NaCl, 3.4 mM EDTA, 0.005% P20); apparent KD from the dose dependence of equilibrium binding
T6 construct: bone morphogenetic protein 2 (BMP-2), mature ligand; also called BMP-2 (CHO cells, R&D Systems); source: bought: R&D Systems (CHO cells)

[8] = molecular target: B1; experiment: as above; remark: listed apart in the source
activin A (Sf9 cells) = molecular target: T1, activin A (Sf9 cells); experiment: as above

Row | rel. KD (against wildtype ActR-IIBECD on the same ligand) [7] [fold] | rel. KD (against wildtype ActR-IIBECD on the same ligand) [8] [fold] | rel. KD (against wildtype ActR-IIBECD on the same ligand) (activin A (Sf9 cells)) [fold] | Binder | other results
1 | – | – | – | B1 | Kd [1]: 0.43 µM
2 | – | – | – | B2 | Kd [2]: 32 µM
3 | – | – | – | B3 | stoichiometry N [3]: 1.97 ActR-IIBECD per 0.98 BMP-2 dimer; stoichiometry N [4]: 2; stoichiometry N [5]: 2.1 ActR-IIBECD per BMP-2 dimer; Kd [6]: 9 µM
4 | 11 | 14 | 2.7 | B4 | –
5 | 9.6 | 6.7 | 8.6 | B5 | –
6 | 8.4 | 3.3 | 2.9 | B6 | –
7 | 6.4 | 6.4 | 24 | B7 | –
8 | 61 | 49 | 290 | B8 | –
9 | 7.9 | 19 | 2510 | B9 | –
10 | 1 | 1.8 | 1 | B10 | –
11 | 6.1 | 0.3 | 0.7 | B11 | –
12 | 1.3 | 1 | 1.1 | B12 | –
